According to the supplement of paper PMC10567573:

B1: ZNF277 (parent)
chain: ILREELQKQRLREILEQQQQERND
B2: C22orf15 (parent)
chain: RGRHEQSPTSRPRKVSSLPPRSC

Variants of: B1
Assay: protein stability index of a GFP-peptide fusion (GPS, HEK-293T) (PSI 1-6); higher = more stable
Settings: c terminus: a fixed tail appended
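Note: lentivirally expressed fusions sorted by FACS into six bins by GFP to DsRed ratio, PSI derived from sequencing read proportions per bin multiplied by bin number.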

Protein stability index of substitutions, site by site:
D24: M 4.14, W 2.73, S 3.68, Y 3.7, T 4.01, P 3.85, K 3.83, R 3.48, Q 4.18, N 4.08, L 4.08, V 4.05

Variants of: B2
Assay: as above
Settings: c terminus: native

Protein stability index, by site and new letter:
P8: R 4.11, C 3.78, K 3.28, H 3.48, Q 2.65, N 2.71, G 2.55
V15: S 2.1, K 3.42, D 1.97, H 4.12, P 4.67, T 1.82, L 3.74, F 3.96, G 2.29, R 2.8, N 2.71, Q 2.22, C 2.52
C23: Q 2.29, L 2.42, H 2.29, W 2.64, V 3.28, T 2.97, N 5.09, I 1.8, Y 3.2, F 3.5
S16: K 2.94, Q 2.92, M 2.63, D 2.87, I 1.98, W 1.81, T 2.07, H 2.57, P 2.77, F 3.32, N 2.53, Y 3.44, V 3.6, A 1.95
Q6: T 1.97, I 4.15, W 4.38, L 2.54, Y 2.05, S 1.79, V 3.92
P20: I 2.72, C 1.58, D 3.82, A 3, F 4.13, V 2.26, S 1.99, E 2.84, Y 2.1
K14: Y 2.54, E 3.42, V 3.29, Q 4.04, D 3.71, I 2.67, W 1.93, T 4.73, F 3.52, G 3.13, N 1.24
S7: D 2.76, R 2.69, N 2.44, V 3.68, Y 2.32, F 2.94
T9: K 2.44, H 1.83, G 2.07, C 1.52, Y 2.35, R 3.3, A 3.73, S 2.58
S17: N 2.99, G 1.99, M 1.89, R 3.79, Q 2.34, P 3.73, Y 2.45, K 1.93, I 2.3, E 3.27
H4: N 3.03, V 2.38, F 2.91, T 3.06, C 2.55, I 3.17, A 1.91, R 3.58
R13: H 3.08, T 2.73, F 2.43, L 3.56, C 3.56, W 1.54, Y 1.49, D 4.32, S 2.15, E 2.88, M 3.68, Q 1.47
R21: E 5.2, H 4.53, D 5.37, G 1.74, K 5.13, W 4.43, I 2.83, N 4.68, M 3.66, A 4.53, Y 4.92, P 4.74, T 4.25, F 4.25, Q 4.51, C 3.38, V 2.88, S 4.8, L 3.37
R1: A 3.06, Y 3.26, W 3.77, D 2.81, V 1.73, M 3.56
P12: Q 3.88, W 2.55, Y 3.13, T 2.55, D 2.8, H 2.55, G 1.4, M 1.89
S22: Q 2.27, D 1.39, T 3.62, H 4.07, P 3.03, E 2.6, L 2.35
